Starred links: 1 amine or outer side, 2 acyl side, 3 side chain; linkers in the order of their positions; H or OH if unused. Positions of bridges follow the written chain, without caps; N, C: chain ends. Groups on a side chain read outwards from the residue. No end group written: not given here. *: point of attachment. C20 diacid = O=C(O)CCCCCCCCCCCCCCCCCCC(=O)*; C18 diacid = O=C(O)CCCCCCCCCCCCCCCCC(=O)*; γGlu = O=C(O)[C@H](CCC(=O)[*:2])N[*:1]; AEEA = NCCOCCOCC(=O)O
What was measured:
Assay in all cases: cell-based or functional assay
[1] = molecular target: T1, human calcitonin (a) receptor (human, UniProt P30988 25-474)
T1 sequence (looked up): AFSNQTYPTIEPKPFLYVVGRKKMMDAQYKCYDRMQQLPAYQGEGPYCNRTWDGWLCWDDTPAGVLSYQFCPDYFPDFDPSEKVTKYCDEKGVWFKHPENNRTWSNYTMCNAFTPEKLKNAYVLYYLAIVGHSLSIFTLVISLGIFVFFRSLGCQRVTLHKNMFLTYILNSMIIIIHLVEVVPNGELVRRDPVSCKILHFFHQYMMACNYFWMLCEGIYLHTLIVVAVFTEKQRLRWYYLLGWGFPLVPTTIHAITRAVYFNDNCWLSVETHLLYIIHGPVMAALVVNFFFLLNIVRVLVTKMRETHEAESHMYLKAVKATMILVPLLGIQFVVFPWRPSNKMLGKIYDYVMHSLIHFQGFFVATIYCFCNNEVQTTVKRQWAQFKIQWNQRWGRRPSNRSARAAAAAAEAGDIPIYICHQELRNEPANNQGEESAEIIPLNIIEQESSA

[2] = molecular target: T2, rat calcitonin (a) receptor (rat, UniProt P32214 25-516)
T2 sequence (looked up): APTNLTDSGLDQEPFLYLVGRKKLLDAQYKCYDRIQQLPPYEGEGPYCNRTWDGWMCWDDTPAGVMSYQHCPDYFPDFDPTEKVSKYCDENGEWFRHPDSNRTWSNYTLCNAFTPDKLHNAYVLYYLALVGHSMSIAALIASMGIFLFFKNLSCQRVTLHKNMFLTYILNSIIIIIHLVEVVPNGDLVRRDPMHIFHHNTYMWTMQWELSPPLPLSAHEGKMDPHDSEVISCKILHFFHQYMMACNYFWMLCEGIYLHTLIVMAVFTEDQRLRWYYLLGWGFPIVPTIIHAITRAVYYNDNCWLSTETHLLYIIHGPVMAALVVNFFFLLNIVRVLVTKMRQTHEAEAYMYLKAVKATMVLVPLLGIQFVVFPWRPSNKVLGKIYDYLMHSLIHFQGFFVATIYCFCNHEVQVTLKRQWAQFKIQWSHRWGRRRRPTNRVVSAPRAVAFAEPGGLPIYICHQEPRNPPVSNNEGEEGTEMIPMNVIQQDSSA

[3] = molecular target: T3, rat amylin 3(a) receptor (rat calcitonin(a) receptor + rat RAMP3) (rat, UniProt P32214 25-516; Q9JJ73 23-147)
T3 sequence (looked up) 1: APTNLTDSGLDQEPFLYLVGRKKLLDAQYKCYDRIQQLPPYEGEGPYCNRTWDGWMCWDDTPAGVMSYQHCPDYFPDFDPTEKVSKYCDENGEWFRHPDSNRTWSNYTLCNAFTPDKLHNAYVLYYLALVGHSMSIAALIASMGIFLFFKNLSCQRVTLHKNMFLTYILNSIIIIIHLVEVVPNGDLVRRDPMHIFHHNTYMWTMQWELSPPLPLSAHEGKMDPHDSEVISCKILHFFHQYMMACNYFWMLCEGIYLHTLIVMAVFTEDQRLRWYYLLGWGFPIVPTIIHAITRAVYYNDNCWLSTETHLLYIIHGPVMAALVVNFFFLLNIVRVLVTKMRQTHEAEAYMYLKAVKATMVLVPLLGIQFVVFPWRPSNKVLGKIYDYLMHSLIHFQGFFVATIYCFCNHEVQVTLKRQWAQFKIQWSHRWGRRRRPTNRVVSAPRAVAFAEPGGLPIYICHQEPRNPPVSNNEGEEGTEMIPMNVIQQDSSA
T3 sequence (looked up) 2: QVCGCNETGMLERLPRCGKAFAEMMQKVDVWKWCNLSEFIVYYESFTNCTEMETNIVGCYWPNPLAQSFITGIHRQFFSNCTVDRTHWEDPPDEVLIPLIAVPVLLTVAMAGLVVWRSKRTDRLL

[4] = molecular target: T4, human amylin 3(a) receptor (human calcitonin receptor + RAMP-3) (human, UniProt P30988 25-474; O60896 24-148)
T4 sequence (looked up) 1: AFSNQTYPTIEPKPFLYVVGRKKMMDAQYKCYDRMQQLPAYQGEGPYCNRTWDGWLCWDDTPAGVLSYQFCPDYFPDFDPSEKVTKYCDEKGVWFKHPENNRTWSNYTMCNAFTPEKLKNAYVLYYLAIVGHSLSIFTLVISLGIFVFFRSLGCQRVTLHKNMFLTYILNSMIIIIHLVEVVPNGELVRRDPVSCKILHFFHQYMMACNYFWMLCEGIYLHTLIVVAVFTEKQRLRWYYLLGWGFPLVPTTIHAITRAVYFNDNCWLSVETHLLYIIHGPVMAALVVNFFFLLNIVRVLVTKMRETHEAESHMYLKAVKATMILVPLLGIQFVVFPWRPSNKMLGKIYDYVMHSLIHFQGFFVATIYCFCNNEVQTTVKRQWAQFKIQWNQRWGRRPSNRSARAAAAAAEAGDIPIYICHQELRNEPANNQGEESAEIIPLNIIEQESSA
T4 sequence (looked up) 2: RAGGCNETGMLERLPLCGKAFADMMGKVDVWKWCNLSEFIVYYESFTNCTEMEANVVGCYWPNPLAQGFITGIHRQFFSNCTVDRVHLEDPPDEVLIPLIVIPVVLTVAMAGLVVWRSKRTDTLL

B1: N-alpha-[(S)-4-Carboxy-4-(19-carboxynonadecanoylamino)butyryl]-Gly-[His1,Glu14,Arg17,Pro37]-pramlintide (peptide)
peptide: {C20 diacid-γGlu}-GHCNTATCATQRLAEFLRHSSNNFGPILPPTNVGSNTP-NH2
modifications: disulfide 3-8
SMILES: CC[C@H](C)[C@H](NC(=O)[C@@H]1CCCN1C(=O)CNC(=O)[C@H](Cc1ccccc1)NC(=O)[C@H](CC(N)=O)NC(=O)[C@H](CC(N)=O)NC(=O)[C@H](CO)NC(=O)[C@H](CO)NC(=O)[C@H](Cc1c[nH]cn1)NC(=O)[C@H](CCCNC(=N)N)NC(=O)[C@H](CC(C)C)NC(=O)[C@H](Cc1ccccc1)NC(=O)[C@H](CCC(=O)O)NC(=O)[C@H](C)NC(=O)[C@H](CC(C)C)NC(=O)[C@H](CCCNC(=N)N)NC(=O)[C@H](CCC(N)=O)NC(=O)[C@@H](NC(=O)[C@H](C)NC(=O)[C@@H]1CSSC[C@H](NC(=O)[C@H](Cc2c[nH]cn2)NC(=O)CNC(=O)CC[C@H](NC(=O)CCCCCCCCCCCCCCCCCCC(=O)O)C(=O)O)C(=O)N[C@@H](CC(N)=O)C(=O)N[C@@H]([C@@H](C)O)C(=O)N[C@@H](C)C(=O)N[C@@H]([C@@H](C)O)C(=O)N1)[C@@H](C)O)C(=O)N[C@@H](CC(C)C)C(=O)N1CCC[C@H]1C(=O)N1CCC[C@H]1C(=O)N[C@H](C(=O)N[C@@H](CC(N)=O)C(=O)N[C@H](C(=O)NCC(=O)N[C@@H](CO)C(=O)N[C@@H](CC(N)=O)C(=O)N[C@H](C(=O)N1CCC[C@H]1C(N)=O)[C@@H](C)O)C(C)C)[C@@H](C)O
[1]
  CTa receptor human EC50: 0.0395 nM
[2]
  CTa receptor rat EC50: 0.114 nM
[3]
  Amylin receptor rat EC50: 0.151 nM
[4]
  Amylin receptor human EC50: 0.0255 nM

B2: N-epsilon1-[(S)-4-Carboxy-4-(19-carboxynonadecanoylamino)butyryl]-[Glu14,His17,His35]-pramlintide (peptide)
peptide: K([γGlu-C20 diacid])CNTATCATQRLAEFLHHSSNNFGPILPPTNVGSHTY-NH2
modifications: disulfide 2-7; N-terminus assumed
SMILES: CC[C@H](C)[C@H](NC(=O)[C@@H]1CCCN1C(=O)CNC(=O)[C@H](Cc1ccccc1)NC(=O)[C@H](CC(N)=O)NC(=O)[C@H](CC(N)=O)NC(=O)[C@H](CO)NC(=O)[C@H](CO)NC(=O)[C@H](Cc1c[nH]cn1)NC(=O)[C@H](Cc1c[nH]cn1)NC(=O)[C@H](CC(C)C)NC(=O)[C@H](Cc1ccccc1)NC(=O)[C@H](CCC(=O)O)NC(=O)[C@H](C)NC(=O)[C@H](CC(C)C)NC(=O)[C@H](CCCNC(=N)N)NC(=O)[C@H](CCC(N)=O)NC(=O)[C@@H](NC(=O)[C@H](C)NC(=O)[C@@H]1CSSC[C@H](NC(=O)[C@@H](N)CCCCNC(=O)CC[C@H](NC(=O)CCCCCCCCCCCCCCCCCCC(=O)O)C(=O)O)C(=O)N[C@@H](CC(N)=O)C(=O)N[C@@H]([C@@H](C)O)C(=O)N[C@@H](C)C(=O)N[C@@H]([C@@H](C)O)C(=O)N1)[C@@H](C)O)C(=O)N[C@@H](CC(C)C)C(=O)N1CCC[C@H]1C(=O)N1CCC[C@H]1C(=O)N[C@H](C(=O)N[C@@H](CC(N)=O)C(=O)N[C@H](C(=O)NCC(=O)N[C@@H](CO)C(=O)N[C@@H](Cc1c[nH]cn1)C(=O)N[C@H](C(=O)N[C@@H](Cc1ccc(O)cc1)C(N)=O)[C@@H](C)O)C(C)C)[C@@H](C)O
[1]
  CTa receptor human EC50: 0.228 nM
[2]
  CTa receptor rat EC50: 0.437 nM
[3]
  Amylin receptor rat EC50: 0.106 nM
[4]
  Amylin receptor human EC50: 0.142 nM

B3: N-epsilon21-[2-(2-{2-[2-(2-{2-[(S)-4-Carboxy-4-(17-carboxyheptadecanoylamino)butyrylamino]ethoxy}ethoxy)acetylamino]ethoxy}ethoxy)acetyl]-[Glu14,His17,Lys21,Glu … (peptide)
peptide: KCNTATCATQRLAEFLHHSSK([AEEA-AEEA-γGlu-C18 diacid])NFGPILPPTNVGSETY-NH2
modifications: disulfide 2-7; N-terminus assumed
SMILES: CC[C@H](C)[C@H](NC(=O)[C@@H]1CCCN1C(=O)CNC(=O)[C@H](Cc1ccccc1)NC(=O)[C@H](CC(N)=O)NC(=O)[C@H](CCCCNC(=O)COCCOCCNC(=O)COCCOCCNC(=O)CC[C@H](NC(=O)CCCCCCCCCCCCCCCCC(=O)O)C(=O)O)NC(=O)[C@H](CO)NC(=O)[C@H](CO)NC(=O)[C@H](Cc1c[nH]cn1)NC(=O)[C@H](Cc1c[nH]cn1)NC(=O)[C@H](CC(C)C)NC(=O)[C@H](Cc1ccccc1)NC(=O)[C@H](CCC(=O)O)NC(=O)[C@H](C)NC(=O)[C@H](CC(C)C)NC(=O)[C@H](CCCNC(=N)N)NC(=O)[C@H](CCC(N)=O)NC(=O)[C@@H](NC(=O)[C@H](C)NC(=O)[C@@H]1CSSC[C@H](NC(=O)[C@@H](N)CCCCN)C(=O)N[C@@H](CC(N)=O)C(=O)N[C@@H]([C@@H](C)O)C(=O)N[C@@H](C)C(=O)N[C@@H]([C@@H](C)O)C(=O)N1)[C@@H](C)O)C(=O)N[C@@H](CC(C)C)C(=O)N1CCC[C@H]1C(=O)N1CCC[C@H]1C(=O)N[C@H](C(=O)N[C@@H](CC(N)=O)C(=O)N[C@H](C(=O)NCC(=O)N[C@@H](CO)C(=O)N[C@@H](CCC(=O)O)C(=O)N[C@H](C(=O)N[C@@H](Cc1ccc(O)cc1)C(N)=O)[C@@H](C)O)C(C)C)[C@@H](C)O
[1]
  CTa receptor human EC50: 0.216 nM
[2]
  CTa receptor rat EC50: 2.06 nM
[3]
  Amylin receptor rat EC50: 0.504 nM
[4]
  Amylin receptor human EC50: 0.184 nM

B4: N-alpha-[(S)-4-Carboxy-4-(19-carboxynonadecanoylamino)butyryl]-[His1,Glu14,His17,Pro37]-pramlintide (peptide)
peptide: {C20 diacid-γGlu}-HCNTATCATQRLAEFLHHSSNNFGPILPPTNVGSNTP-NH2
modifications: disulfide 2-7; not fully specified; printed as N-alpha-[(S)-4-Carboxy-4-(19-carboxynonadecanoylamino)butyryl]-[His1,Glu14,His17,Pro37]-pramlintide
[1]
  CTa receptor human EC50: 0.067 nM
[2]
  CTa receptor rat EC50: 0.109 nM
[3]
  Amylin receptor rat EC50: 0.121 nM
[4]
  Amylin receptor human EC50: 0.0925 nM

B5: N-alpha-[(S)-4-Carboxy-4-(19-carboxynonadecanoylamino)butyryl]-[Gly1,Glu14,Arg17,Pro37]-pramlintide (peptide)
peptide: {C20 diacid-γGlu}-GCNTATCATQRLAEFLRHSSNNFGPILPPTNVGSNTP-NH2
modifications: disulfide 2-7
SMILES: CC[C@H](C)[C@H](NC(=O)[C@@H]1CCCN1C(=O)CNC(=O)[C@H](Cc1ccccc1)NC(=O)[C@H](CC(N)=O)NC(=O)[C@H](CC(N)=O)NC(=O)[C@H](CO)NC(=O)[C@H](CO)NC(=O)[C@H](Cc1c[nH]cn1)NC(=O)[C@H](CCCNC(=N)N)NC(=O)[C@H](CC(C)C)NC(=O)[C@H](Cc1ccccc1)NC(=O)[C@H](CCC(=O)O)NC(=O)[C@H](C)NC(=O)[C@H](CC(C)C)NC(=O)[C@H](CCCNC(=N)N)NC(=O)[C@H](CCC(N)=O)NC(=O)[C@@H](NC(=O)[C@H](C)NC(=O)[C@@H]1CSSC[C@H](NC(=O)CNC(=O)CC[C@H](NC(=O)CCCCCCCCCCCCCCCCCCC(=O)O)C(=O)O)C(=O)N[C@@H](CC(N)=O)C(=O)N[C@@H]([C@@H](C)O)C(=O)N[C@@H](C)C(=O)N[C@@H]([C@@H](C)O)C(=O)N1)[C@@H](C)O)C(=O)N[C@@H](CC(C)C)C(=O)N1CCC[C@H]1C(=O)N1CCC[C@H]1C(=O)N[C@H](C(=O)N[C@@H](CC(N)=O)C(=O)N[C@H](C(=O)NCC(=O)N[C@@H](CO)C(=O)N[C@@H](CC(N)=O)C(=O)N[C@H](C(=O)N1CCC[C@H]1C(N)=O)[C@@H](C)O)C(C)C)[C@@H](C)O
[1]
  CTa receptor human EC50: 0.055 nM
[2]
  CTa receptor rat EC50: 0.37 nM
[3]
  Amylin receptor rat EC50: 0.3 nM
[4]
  Amylin receptor human EC50: 0.036 nM

B6: N-alpha-[(S)-4-Carboxy-4-(19-carboxynonadecanoylamino)butyryl]-[His1,Glu14,His17,His35]-pramlintide (peptide)
peptide: {C20 diacid-γGlu}-HCNTATCATQRLAEFLHHSSNNFGPILPPTNVGSHTY-NH2
modifications: disulfide 2-7; not fully specified; printed as N-alpha-[(S)-4-Carboxy-4-(19-carboxynonadecanoylamino)butyryl]-[His1,Glu14,His17,His35]-pramlintide
[1]
  CTa receptor human EC50: 0.0855 nM
[2]
  CTa receptor rat EC50: 1.04 nM
[3]
  Amylin receptor rat EC50: 0.224 nM
[4]
  Amylin receptor human EC50: 0.121 nM

Source: patent US20130005646A1 (Novo Nordisk, published 2013)
